Series [1] deals with endogenous PDE4D (mouse brain) (mouse (endogenous in brain)) (UniProt Q01063). Description: co-IP.
Series [2] deals with the molecule itself. Put plainly: SEC + other: sucrose density gradient centrifugation.

endogenous PDE4D (mouse brain) (mouse (endogenous in brain)), sequence (Q01063 whole entry): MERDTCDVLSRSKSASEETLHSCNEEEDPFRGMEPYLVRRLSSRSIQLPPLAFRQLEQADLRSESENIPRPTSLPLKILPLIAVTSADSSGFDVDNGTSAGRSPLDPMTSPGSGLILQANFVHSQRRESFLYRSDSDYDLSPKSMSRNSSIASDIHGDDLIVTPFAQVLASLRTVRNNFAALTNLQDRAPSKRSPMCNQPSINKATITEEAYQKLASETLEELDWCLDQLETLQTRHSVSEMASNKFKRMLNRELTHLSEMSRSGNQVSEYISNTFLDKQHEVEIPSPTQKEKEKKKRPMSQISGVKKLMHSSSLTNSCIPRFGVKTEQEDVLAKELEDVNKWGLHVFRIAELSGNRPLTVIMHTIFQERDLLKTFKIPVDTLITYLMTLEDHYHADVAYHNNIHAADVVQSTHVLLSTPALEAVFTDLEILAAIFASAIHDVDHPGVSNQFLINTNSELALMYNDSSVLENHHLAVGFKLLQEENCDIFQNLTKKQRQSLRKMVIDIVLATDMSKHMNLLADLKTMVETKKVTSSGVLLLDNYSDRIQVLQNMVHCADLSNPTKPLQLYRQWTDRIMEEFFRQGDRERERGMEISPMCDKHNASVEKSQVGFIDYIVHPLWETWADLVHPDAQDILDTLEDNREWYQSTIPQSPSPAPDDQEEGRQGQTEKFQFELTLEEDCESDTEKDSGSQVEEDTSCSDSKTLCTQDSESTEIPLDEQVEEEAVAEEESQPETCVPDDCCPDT

In series [1], “endogenous long PDE4A variants (mouse brain) (from UniProt O89084 1-844) (natural protein)” had a percent of the total PDE4A found in complex with PDE4D of 2%.

B1: PDE4A4 (natural protein, human, UniProt P27815-1 1-886, looked up)
chain: MEPPTVPSERSLSLSLPGPREGQATLKPPPQHLWRQPRTPIRIQQRGYSDSAERAERERQPHRPIERADAMDTSDRPGLRTTRMSWPSSFHGTGTGSGGAGGGSSRRFEAENGPTPSPGRSPLDSQASPGLVLHAGAATSQRRESFLYRSDSDYDMSPKTMSRNSSVTSEAHAEDLIVTPFAQVLASLRSVRSNFSLLTNVPVPSNKRSPLGGPTPVCKATLSEETCQQLARETLEELDWCLEQLETMQTYRSVSEMASHKFKRMLNRELTHLSEMSRSGNQVSEYISTTFLDKQNEVEIPSPTMKEREKQQAPRPRPSQPPPPPVPHLQPMSQITGLKKLMHSNSLNNSNIPRFGVKTDQEELLAQELENLNKWGLNIFCVSDYAGGRSLTCIMYMIFQERDLLKKFRIPVDTMVTYMLTLEDHYHADVAYHNSLHAADVLQSTHVLLATPALDAVFTDLEILAALFAAAIHDVDHPGVSNQFLINTNSELALMYNDESVLENHHLAVGFKLLQEDNCDIFQNLSKRQRQSLRKMVIDMVLATDMSKHMTLLADLKTMVETKKVTSSGVLLLDNYSDRIQVLRNMVHCADLSNPTKPLELYRQWTDRIMAEFFQQGDRERERGMEISPMCDKHTASVEKSQVGFIDYIVHPLWETWADLVHPDAQEILDTLEDNRDWYYSAIRQSPSPPPEEESRGPGHPPLPDKFQFELTLEEEEEEEISMAQIPCTAQEALTAQGLSGVEEALDATIAWEASPAQESLEVMAQEASLEAELEAVYLTQQAQSTGSAPVAPDEFSSREEFVVAVSHSSPSALALQSPLLPAWRTLSVSEHAPGLPGLPSTAAEVEAQREHQAAKRACSACAGTFGEDTSALPAPGGGGSGGDPT
Turning to B1, the stoichiometry N (usually a count of units in the complex or per binding partner) in series [2] amounted to 2.

B2: PDE4D3 (natural protein, UniProt P14270-1 1-672, looked up)
chain: MMHVNTFPFRRHSWICFDVDNGTSAGRSPLDPMTSPGSGLILQANFVHSQRRESFLYRSDSDYDLSPKSMSRNSSIASDIHGDDLIVTPFAQVLASLRTVRNNFAALTNLQDRAPSKRSPMCNQPSINKATITEEAYQKLASETLEELDWCLDQLETLQTRHSVSEMASNKFKRMLNRELTHLSEMSRSGNQVSEYISNTFLDKQHEVEIPSPTQKEKEKKKRPMSQISGVKKLMHSSSLTNSCIPRFGVKTEQEDVLAKELEDVNKWGLHVFRIAELSGNRPLTVIMHTIFQERDLLKTFKIPVDTLITYLMTLEDHYHADVAYHNNIHAADVVQSTHVLLSTPALEAVFTDLEILAAIFASAIHDVDHPGVSNQFLINTNSELALMYNDSSVLENHHLAVGFKLLQEENCDIFQNLTKKQRQSLRKMAIDIVLATDMSKHMNLLADLKTMVETKKVTSSGVLLLDNYSDRIQVLQNMVHCADLSNPTKPLQLYRQWTDRIMEEFFRQGDRERERGMEISPMCDKHNASVEKSQVGFIDYIVHPLWETWADLVHPDAQDILDTLEDNREWYQSTIPQSPSPAPDDQEDGRQGQTEKFQFELTLEEDGESDTEKDSGSQVEEDTSCSDSKTLCTQDSESTEIPLDEQVEEEAVAEEESQPQTGVADDCCPDT
For B2, in series [2], the “stoichiometry N” value worked out at 2.

B3: PDE4D5 (natural protein, rat, UniProt P14270-8 1-745, looked up)
chain: MAQQTTSPDTLTVPEVDNPHVPNPWLNEDLVKSLRENLLQHEKSKTARKSVSPKLSPVISPRNSPRLLRRMLLSSNIPKQRRFTVAHTCFDVDNGTSAGRSPLDPMTSPGSGLILQANFVHSQRRESFLYRSDSDYDLSPKSMSRNSSIASDIHGDDLIVTPFAQVLASLRTVRNNFAALTNLQDRAPSKRSPMCNQPSINKATITEEAYQKLASETLEELDWCLDQLETLQTRHSVSEMASNKFKRMLNRELTHLSEMSRSGNQVSEYISNTFLDKQHEVEIPSPTQKEKEKKKRPMSQISGVKKLMHSSSLTNSCIPRFGVKTEQEDVLAKELEDVNKWGLHVFRIAELSGNRPLTVIMHTIFQERDLLKTFKIPVDTLITYLMTLEDHYHADVAYHNNIHAADVVQSTHVLLSTPALEAVFTDLEILAAIFASAIHDVDHPGVSNQFLINTNSELALMYNDSSVLENHHLAVGFKLLQEENCDIFQNLTKKQRQSLRKMAIDIVLATDMSKHMNLLADLKTMVETKKVTSSGVLLLDNYSDRIQVLQNMVHCADLSNPTKPLQLYRQWTDRIMEEFFRQGDRERERGMEISPMCDKHNASVEKSQVGFIDYIVHPLWETWADLVHPDAQDILDTLEDNREWYQSTIPQSPSPAPDDQEDGRQGQTEKFQFELTLEEDGESDTEKDSGSQVEEDTSCSDSKTLCTQDSESTEIPLDEQVEEEAVAEEESQPQTGVADDCCPDT
With B3, the “stoichiometry N” value in series [2] worked out at 2.

B4: PDE4D4 (natural protein, rat, UniProt P14270-5 1-803, looked up)
chain: MEAEGSSVPARAGSHEGSDSSGGAALKAPKHLWRHEQHHQYPLRQPQFRLLHPHHHLPPPPPPSPQPQLQPPPPPPLPPPPPPPGATRGRYASSGASRVRHRGYSDTERYLYCRAMDRTSYAVETGHRPGLKKSRMSWPSSFQGLRRFDVDNGTSAGRSPLDPMTSPGSGLILQANFVHSQRRESFLYRSDSDYDLSPKSMSRNSSIASDIHGDDLIVTPFAQVLASLRTVRNNFAALTNLQDRAPSKRSPMCNQPSINKATITEEAYQKLASETLEELDWCLDQLETLQTRHSVSEMASNKFKRMLNRELTHLSEMSRSGNQVSEYISNTFLDKQHEVEIPSPTQKEKEKKKRPMSQISGVKKLMHSSSLTNSCIPRFGVKTEQEDVLAKELEDVNKWGLHVFRIAELSGNRPLTVIMHTIFQERDLLKTFKIPVDTLITYLMTLEDHYHADVAYHNNIHAADVVQSTHVLLSTPALEAVFTDLEILAAIFASAIHDVDHPGVSNQFLINTNSELALMYNDSSVLENHHLAVGFKLLQEENCDIFQNLTKKQRQSLRKMAIDIVLATDMSKHMNLLADLKTMVETKKVTSSGVLLLDNYSDRIQVLQNMVHCADLSNPTKPLQLYRQWTDRIMEEFFRQGDRERERGMEISPMCDKHNASVEKSQVGFIDYIVHPLWETWADLVHPDAQDILDTLEDNREWYQSTIPQSPSPAPDDQEDGRQGQTEKFQFELTLEEDGESDTEKDSGSQVEEDTSCSDSKTLCTQDSESTEIPLDEQVEEEAVAEEESQPQTGVADDCCPDT
Turning to B4, in series [2], the “stoichiometry N” value turned out to be 2.

Source of the values: publication PMC4315173 (The Biochemical journal, 2014).
